Target: VRC01
Assay: FACS; competition with YU2 gp120dsm for 3 nM VRC01

Bal gp120
Ki: 5 nM
